Test results taken from article PMC2683891.

What was measured:
Assay in all cases: purified protein
Format in all cases: biochemical, Campylobacter jejuni
Conditions in all cases: 100 mM HEPES pH 7.5, 200 mM KCl, 1.8 mM DTNB, 25 °C
purified protein [1] = substrate: CCCC(=O)SCCNC(=O)CCNC(=O)[C@H](O)C(C)(C)COP(=O)(O)OP(=O)(O)OC[C@H]1O[C@@H](n2cnc3c(N)ncnc32)[C@H](O)[C@@H]1OP(=O)(O)O
purified protein [2] = substrate: CCCCCC(=O)SCCNC(=O)CCNC(=O)[C@H](O)C(C)(C)COP(=O)(O)OP(=O)(O)OC[C@H]1O[C@@H](n2cnc3c(N)ncnc32)[C@H](O)[C@@H]1OP(=O)(O)O
purified protein [3] = substrate: CCCCCCCCCCCC(=O)SCCNC(=O)CCNC(=O)[C@H](O)C(C)(C)COP(=O)(O)OP(=O)(O)OC[C@H]1O[C@@H](n2cnc3c(N)ncnc32)[C@H](O)[C@@H]1OP(=O)(O)O
purified protein [4] = substrate: CCCCCCCCCCCCCCCC(=O)SCCNC(=O)CCNC(=O)[C@H](O)C(C)(C)COP(=O)(O)OP(=O)(O)OC[C@H]1O[C@@H](n2cnc3c(N)ncnc32)[C@H](O)[C@@H]1OP(=O)(O)O

B1: Cj0915 (Campylobacter jejuni subsp. jejuni NCTC 11168 = ATCC 700819) (protein)
chain: MRDMGEPKLKIVAMPSDTNPAGNIFGGWILSQIDLAGAIAARELSPERVVTISMDKVVFKEPVFIGDIISCYSKVVNVGNTSISVEVEVTAQRVDSQGCTSCINVTSALVTYVSVTRDGKKNPISEELKRIHGFLNA
Km (purified protein [1]): 40.8 ± 10.3 µM | Vmax (purified protein [1]): 55 µmol/min/mg | kcat (purified protein [1]): 13.6 ± 1.3 s⁻¹ | kcat/Km (purified protein [1]): 330000 M⁻¹ s⁻¹ | Km (purified protein [2]): 39.3 ± 15.2 µM | Vmax (purified protein [2]): 54.3 µmol/min/mg | kcat (purified protein [2]): 13.4 ± 2 s⁻¹ | kcat/Km (purified protein [2]): 340000 M⁻¹ s⁻¹ | Km (purified protein [3]): 13.9 ± 1.4 µM | Vmax (purified protein [3]): 63.3 µmol/min/mg | kcat (purified protein [3]): 15.6 ± 0.7 s⁻¹ | kcat/Km (purified protein [3]): 1.1e+06 M⁻¹ s⁻¹ | Km (purified protein [4]): 10.6 ± 0.6 µM | Vmax (purified protein [4]): 38.9 µmol/min/mg | kcat (purified protein [4]): 9.6 ± 0.3 s⁻¹ | kcat/Km (purified protein [4]): 910000 M⁻¹ s⁻¹
